Reference: patent publication US20240034813A1 (Janssen / Centocor, published 2024)

How the values were obtained:
[1] = target: T1, recombinant cMet/HGFR with c-terminal His-tag, Cy5-labeled (UniProt P08581 25-932, limits assumed, Cy5 label (reacted with Cy5 Mono NHS Ester; sites not stated)); experiment: competitive TR-FRET (Eu-amivantamab/Cy5-c-MET), EC50 ratio vs Reference Material; Ex. 2 Formulation 2 (50 mM histidine), T0, 40 C table
T1 construct: Commercial protein; also called Cy5-c-MET; Cy5-labeled c-MET antigen; not shown: C-terminal His-tag
Description: (§1) In this procedure, varying concentrations of unlabeled bispecific EGFR-cMet antibody sample compete with donor fluorophore (Europium (Eu) chelate) labeled bispecific EGFR-cMet antibody for binding to an acceptor fluorophore (Cy5)-labeled c-MET antigen. Excitation of the donor fluorophore results in a transfer of energy to the bound acceptor fluorophore (FRET process). The resultant FRET is detected by emission of light at 665 nm using a microplate reader capable of measuring time-resolved fluorescence. Sample dose response curves are compared to the Reference Material (RM).
(§2) c-MET Binding Materials and Methods. Certified commercial cMet, a recombinant cMet/HGFR with c-terminal His-tag is reacted with certified commercial Cy5 Mono NHS Ester to produce Cy5-labeled c-MET. Validated bispecific EGFR-cMet antibody is reacted with certified commercial Europium (Eu) chelate to produce Eu labeled bispecific EGFR-cMet antibody. […] Fluorescence is then measured by spectrophotometry at 665 nm, plotted against antibody concentration and analyzed by a four-parameter logistic model. The antibody concentration required to obtain half of the maximum fluorescence response (EC50) is determined for RM, assay control and samples. The potencies of assay control and samples are calculated based on the ratio of the sample (or control) and RM EC50 values and reported as a percentage activity relative to the RM.

[2] = target: T2, recombinant human EGFR/ErbB1/HER1 with C-terminal His tag, Cy5-labeled (human, UniProt P00533 25-645, Cy5 label (reacted with Cy5 Mono NHS Ester; sites not stated)); experiment: competitive TR-FRET (Eu-amivantamab/Cy5-EGFR), EC50 ratio vs Reference Material; Ex. 2 Formulation 1 (10 mM histidine), 3 months at 5 C
T2 construct: Commercial protein; also called Cy5-EGFR; Cy5-labeled EGFR antigen; not shown: C-terminal His tag
Description: as §1, with “EGFR” for “c-MET”, “RM.” for “Reference Material (RM).”
as §2, with “EGFR” for “c-MET”, “EGFR,” for “cMet,”, “human EGFR/ErbB1/HER1” for “cMet/HGFR”, “C-terminal His tag” for “c-terminal His-tag”, “EGFR.” for “c-MET.”, “Eu-labeled” for “Eu labeled”

[3] = target: T2, recombinant human EGFR/ErbB1/HER1 with …; experiment: competitive TR-FRET (Eu-amivantamab/Cy5-EGFR), EC50 ratio vs Reference Material; Ex. 11 drug product, 12 months at 5 C
Description: as §1, with “EGFR” for “c-MET”, “RM.” for “Reference Material (RM).”
as §2, with “EGFR” for “c-MET”, “EGFR,” for “cMet,”, “human EGFR/ErbB1/HER1” for “cMet/HGFR”, “C-terminal His tag” for “c-terminal His-tag”, “EGFR.” for “c-MET.”, “Eu-labeled” for “Eu labeled”

[4] = target: T2, recombinant human EGFR/ErbB1/HER1 with …; experiment: competitive TR-FRET (Eu-amivantamab/Cy5-EGFR), EC50 ratio vs Reference Material; Ex. 11 drug product, 3 months at 40 C
Description: as §1, with “EGFR” for “c-MET”, “RM.” for “Reference Material (RM).”
as §2, with “EGFR” for “c-MET”, “EGFR,” for “cMet,”, “human EGFR/ErbB1/HER1” for “cMet/HGFR”, “C-terminal His tag” for “c-terminal His-tag”, “EGFR.” for “c-MET.”, “Eu-labeled” for “Eu labeled”

[5] = target: T1, recombinant cMet/HGFR with c-terminal …; experiment: competitive TR-FRET (Eu-amivantamab/Cy5-c-MET), EC50 ratio vs Reference Material; Ex. 3 acetate formulation, 6 months at 25 C then 5 freeze/thaw cycles
Description: as §1, §2

[6] = target: T1, recombinant cMet/HGFR with c-terminal …; experiment: competitive TR-FRET (Eu-amivantamab/Cy5-c-MET), EC50 ratio vs Reference Material; Ex. 12 drug product with rHuPH20, 0 months, 40 C table
Description: as §1, §2

[7] = target: T1, recombinant cMet/HGFR with c-terminal …; experiment: competitive TR-FRET (Eu-amivantamab/Cy5-c-MET), EC50 ratio vs Reference Material; Ex. 12 drug product with rHuPH20, 6 months at 5 C
Description: as §1, §2

[8] = target: T2, recombinant human EGFR/ErbB1/HER1 with …; experiment: competitive TR-FRET (Eu-amivantamab/Cy5-EGFR), EC50 ratio vs Reference Material; Ex. 11 drug product, 1 month at 40 C
Description: as §1, with “EGFR” for “c-MET”, “RM.” for “Reference Material (RM).”
as §2, with “EGFR” for “c-MET”, “EGFR,” for “cMet,”, “human EGFR/ErbB1/HER1” for “cMet/HGFR”, “C-terminal His tag” for “c-terminal His-tag”, “EGFR.” for “c-MET.”, “Eu-labeled” for “Eu labeled”

cMET Binding % activity relative to RM [1]: 102%
EGFR Binding % activity relative to RM [2]: 102%
EGFR Binding activity relative to Reference Material (%) [3]: 86%
EGFR Binding activity relative to Reference Material (%) [4]: 8%
cMET Binding % activity relative to RM [5]: 84%
cMET Binding activity relative to Reference Material (%) [6]: 91%
cMET Binding activity relative to Reference Material (%) [7]: 102%
EGFR Binding activity relative to Reference Material (%) [8]: 39%
B1: amivantamab (bispecific antibody, human IgG1, kappa)
heavy 1: not shown
light 1: not shown
heavy 2: not shown
light 2: DIQMTQSPSSVSASVGDRVTITCRASQGISNWLAWFQHKPGKAPKLLIYAASSLLSGVPSRFSGSGSGTDFTLTISSLQPEDFATYYCQQANSFPITFGQGTRLEIKRTVAAPSVFIFPPSDEQLKSGTASVVCLLNNFYPREAKVQWKVDNALQSGNSQESVTEQDSKDSTYSLSSTLTLSKADYEKHKVYACEVTHQGLSSPVTKSFNRGEC
notes: The samples tested were high concentration (160 mg/mL) formulations, fresh or stored or stressed; also called JNJ-61186372; bispecific EGFR-cMet antibody
